Drawing on publication PMC9064986 (2022), this text covers koff, kon and Kd for six variants.

B1: BMPRII extracellular domain (ECD), wild type [human] / BMP10 growth factor (GF)-domain from Pro:BMP10 made in HEK EBNA cells [human] (parent complex)
chain 1: SQNQERLCAFKDPYQQDLGIGESRISHENGTILCSKGSTCYGLWEKSKGDINLVKQGCWSHIGDPQECHYEECVVTTTPPSIQNGTYRFCCCSTDLCNVNFTENFPPPDTTPLSPPHSFNRDET
chain 2: NAKGNYCKRTPLYIDFKEIGWDSWIIAPPGYEAYECRGVCNYPLAEHLTPTKHAIIQALVHLKNSQKASKACCVPTKLEPISILYLDKGVVTYKFKYEGMAVSECGCR

Variants of B1 are the subject of the first assay. Put plainly: SPR (Biacore); BMP10 immobilised on a CM5 Biacore chip; parent: 0.161.
As for chain 1 SQNQERLCAFKDPYQQDLGIGESRISHENGTILCSKGSTCYGLWEKSKGDINLVKQGCWSHIEDPQECHYEECVVTTTPPSIQNGTYRFCCCSTDLCNVNFTENFPPPDTTPLSPPHSFNRDET, the koff (usually the rate constant with which the complex falls apart) was determined as 0.609 s⁻¹.
The same measure, in the same setting: then chain 1 SQNQERLCAFKDPYQQDLGIGESRISHENGTILCSKGSTCYGLWEKSKGDINLVKQGCWSHIWDPQECHYEECVVTTTPPSIQNGTYRFCCCSTDLCNVNFTENFPPPDTTPLSPPHSFNRDET, with 0.433 s⁻¹; and chain 1 SQNQERLCAFKDPYQQDLGIGESRISHENGTILCSKGSTCYGLWEKSKGDINLVKQGCWSHIADPQECHYEECVVTTTPPSIQNGTYRFCCCSTDLCNVNFTENFPPPDTTPLSPPHSFNRDET, with 0.331 s⁻¹.
On the same count and under the same terms, the result for chain 1 SQNQERLCAFKDPYQQDLGIGESRISHENGTILCSKGSTCYGLWEKSKGDINLVKQGCWSHIGDPQECHYEKCVVTTTPPSIQNGTYRFCCCSTDLCNVNFTENFPPPDTTPLSPPHSFNRDET reads 0.158 s⁻¹.
Same read-out and setting: the result for chain 1 SQNQERLCAFKDPYQQDLGIGESRISHENGTILCSKGSTCYGLWEKSKGDINLVKQGCWSHIGDPQECHYEECVVTTTPPPIQNGTYRFCCCSTDLCNVNFTENFPPPDTTPLSPPHSFNRDET reads 0.0423 s⁻¹; that for chain 1 SQNQERLCAFKDPYQQDLGIGESRISHENGTILCSKGSTCYGLWEKSKGDINLVKQGCWSHIGDPHECHYEECVVTTTPPSIQNGTYRFCCCSTDLCNVNFTENFPPPDTTPLSPPHSFNRDET, 0.147 s⁻¹.

In another assay the parent is B1. Put plainly: SPR (Biacore); BMP10 immobilised on a CM5 Biacore chip; parent: 1.35e+05. (In general: In SPR one partner is held on a chip, and binding of the other changes the refractive index at the surface.)
On to chain 1 SQNQERLCAFKDPYQQDLGIGESRISHENGTILCSKGSTCYGLWEKSKGDINLVKQGCWSHIEDPQECHYEECVVTTTPPSIQNGTYRFCCCSTDLCNVNFTENFPPPDTTPLSPPHSFNRDET, for which the kon (commonly the rate constant with which the complex forms) came to 3980 M⁻¹ s⁻¹.
Same read-out and setting: the result for chain 1 SQNQERLCAFKDPYQQDLGIGESRISHENGTILCSKGSTCYGLWEKSKGDINLVKQGCWSHIWDPQECHYEECVVTTTPPSIQNGTYRFCCCSTDLCNVNFTENFPPPDTTPLSPPHSFNRDET reads 1830 M⁻¹ s⁻¹.
Still for that read-out and setting: then chain 1 SQNQERLCAFKDPYQQDLGIGESRISHENGTILCSKGSTCYGLWEKSKGDINLVKQGCWSHIADPQECHYEECVVTTTPPSIQNGTYRFCCCSTDLCNVNFTENFPPPDTTPLSPPHSFNRDET, with 104000 M⁻¹ s⁻¹.
Still for that read-out and setting: the result for chain 1 SQNQERLCAFKDPYQQDLGIGESRISHENGTILCSKGSTCYGLWEKSKGDINLVKQGCWSHIGDPQECHYEKCVVTTTPPSIQNGTYRFCCCSTDLCNVNFTENFPPPDTTPLSPPHSFNRDET reads 148000 M⁻¹ s⁻¹; that for chain 1 SQNQERLCAFKDPYQQDLGIGESRISHENGTILCSKGSTCYGLWEKSKGDINLVKQGCWSHIGDPQECHYEECVVTTTPPPIQNGTYRFCCCSTDLCNVNFTENFPPPDTTPLSPPHSFNRDET, 129000 M⁻¹ s⁻¹.
Turning to chain 1 SQNQERLCAFKDPYQQDLGIGESRISHENGTILCSKGSTCYGLWEKSKGDINLVKQGCWSHIGDPHECHYEECVVTTTPPSIQNGTYRFCCCSTDLCNVNFTENFPPPDTTPLSPPHSFNRDET, the kon is 120000 M⁻¹ s⁻¹.

In the next assay the parent is B1. The assay can be described thus: SPR (Biacore); BMP10 immobilised on a CM5 Biacore chip; parent: 1.19e+03 nM.
Turning to chain 1 SQNQERLCAFKDPYQQDLGIGESRISHENGTILCSKGSTCYGLWEKSKGDINLVKQGCWSHIEDPQECHYEECVVTTTPPSIQNGTYRFCCCSTDLCNVNFTENFPPPDTTPLSPPHSFNRDET, the dissociation constant (Kd) (usually the constant that tells how readily two partners part at equilibrium) amounted to 153 µM.
Regarding chain 1 SQNQERLCAFKDPYQQDLGIGESRISHENGTILCSKGSTCYGLWEKSKGDINLVKQGCWSHIWDPQECHYEECVVTTTPPSIQNGTYRFCCCSTDLCNVNFTENFPPPDTTPLSPPHSFNRDET, the dissociation constant Kd came out at 237 µM.
On the same count and under the same terms, then chain 1 SQNQERLCAFKDPYQQDLGIGESRISHENGTILCSKGSTCYGLWEKSKGDINLVKQGCWSHIADPQECHYEECVVTTTPPSIQNGTYRFCCCSTDLCNVNFTENFPPPDTTPLSPPHSFNRDET, with 3.19 µM.
Still for that read-out and setting: the result for chain 1 SQNQERLCAFKDPYQQDLGIGESRISHENGTILCSKGSTCYGLWEKSKGDINLVKQGCWSHIGDPQECHYEKCVVTTTPPSIQNGTYRFCCCSTDLCNVNFTENFPPPDTTPLSPPHSFNRDET reads 1.07 µM; that for chain 1 SQNQERLCAFKDPYQQDLGIGESRISHENGTILCSKGSTCYGLWEKSKGDINLVKQGCWSHIGDPQECHYEECVVTTTPPPIQNGTYRFCCCSTDLCNVNFTENFPPPDTTPLSPPHSFNRDET, 0.328 µM.
Still for that read-out and setting: then chain 1 SQNQERLCAFKDPYQQDLGIGESRISHENGTILCSKGSTCYGLWEKSKGDINLVKQGCWSHIGDPHECHYEECVVTTTPPSIQNGTYRFCCCSTDLCNVNFTENFPPPDTTPLSPPHSFNRDET, with 1.22 µM.
